One block for each binder: values may come before it.
Assays:
[1] = biological target: T1, synthetic human eotaxin (predicted mature protein consisting of amino acids 24-97) (human, UniProt P51671 24-97); assay: Scatchard analysis of competition of unlabeled eotaxin with 125I-eotaxin on purified human eosinophils
T1 construct: also called clone #25 polypeptide; synthetic mature eotaxin
Description: Binding of RANTES, MIP-1α and human eotaxin was carried out in binding buffer consisting of 50 mM HEPES supplemented with 1 mM CaCl_2, 5 mM MgCl_2 and 0.5% BSA. […] The final reaction volume was 200 μls. Total binding was carried out in the absence of unlabeled chemokines, and non-specific binding was determined by incubating cells with radiolabeled chemokine in the presence of 250 nM of cold chemokine. At the end of incubation, cells were washed 3 times in binding buffer plus 0.5 M NaCl. The cell pellets were transferred into LP3 tubes and counted in a gamma counter.
RANTES and MIP-1a were not able to compete with eotaxin under the conditions used. […] The observed dissociation constant is analogous to other chemokine-receptor dissociation constants.

[2] = biological target: T1, synthetic human eotaxin (predicted …); assay: radiolabeled eotaxin on 5×10^5 transfected L1-2 cells, with or without 125 nM unlabeled eotaxin
Description: Figure 11: FIG. 11 is a bar graph illustrating the binding of human eotaxin to CKR-3 transfected L1-2 cells. Radiolabeled eotaxin was incubated with 5 ×10^5 transfected cells or untransfected L1-2 cells.

- Kd [1]: 4.7 nM
B1: receptor for eotaxin on purified human eosinophils (single class of high affinity binding sites) (receptor)
chain: MTTSLDTVETFGTTSYYDDVGLLCEKADTRALMAQFVPPLYSLVFTFGLLGNVVVVMILIKYRRLRIMTNIYLLNLAISDLLFLVTLPFWIHYVRGHNWVFGHGMCKLLSGFYHTGLYSEIFFIILLTIDRYLAIVHAVFALRARTVTFGVITSIVTWGLAVLAALPEFIFYETEELFEETLCSALYPEDTVYSWRHFHTLRMTIFCLVLPLLVMAICYTGIIKTLLRCPSKKKYKAIRLIFVIMAVFFIFWTPYNVAILLSSYQSILFGNDCERTKHLDLVMLVTEVIAYSHCCMNPVIYAFVGERFRKYLRHFFHRHLLMHLGRYIPFLPSEKLERTSSVSPSTAEPELSIVF

- binding result [2]: binds
B2: FLAG-tagged human C-C chemokine receptor 3 (CKR-3) expressed on transfected mouse L1-2 pre-B lymphoma cells (receptor)
chain: MDYKDDDDKEFTTSLDTVETFGTTSYYDDVGLLCEKADTRALMAQFVPPLYSLVFTFGLLGNVVVVMILIKYRRLRIMTNIYLLNLAISDLLFLVTLPFWIHYVRGHNWVFGHGMCKLLSGFYHTGLYSEIFFIILLTIDRYLAIVHAVFALRARTVTFGVITSIVTWGLAVLAALPEFIFYETEELFEETLCSALYPEDTVYSWRHFHTLRMTIFCLVLPLLVMAICYTGIIKTLLRCPSKKKYKAIRLIFVIMAVFFIFWTPYNVAILLSSYQSILFGNDCERTKHLDLVMLVTEVIAYSHCCMNPVIYAFVGERFRKYLRHFFHRHLLMHLGRYIPFLPSEKLERTSSVSPSTAEPELSIVF
notes: also called C-C CKR-3; CC-CKR-3
